Experimental data reported in patent US20100129369A1 (Eli Lilly, published 2010).

Key:
[1] = molecular target: T1, RON-ECD-Fc (human, UniProt Q04912 25-957); assay: ELISA, coated ECD-Fc, antibody 0.357 ng/mL
T1 construct: extracellular domain; Bought reagent; not shown: Fc part of the bought fusion
T1 sequence (looked up): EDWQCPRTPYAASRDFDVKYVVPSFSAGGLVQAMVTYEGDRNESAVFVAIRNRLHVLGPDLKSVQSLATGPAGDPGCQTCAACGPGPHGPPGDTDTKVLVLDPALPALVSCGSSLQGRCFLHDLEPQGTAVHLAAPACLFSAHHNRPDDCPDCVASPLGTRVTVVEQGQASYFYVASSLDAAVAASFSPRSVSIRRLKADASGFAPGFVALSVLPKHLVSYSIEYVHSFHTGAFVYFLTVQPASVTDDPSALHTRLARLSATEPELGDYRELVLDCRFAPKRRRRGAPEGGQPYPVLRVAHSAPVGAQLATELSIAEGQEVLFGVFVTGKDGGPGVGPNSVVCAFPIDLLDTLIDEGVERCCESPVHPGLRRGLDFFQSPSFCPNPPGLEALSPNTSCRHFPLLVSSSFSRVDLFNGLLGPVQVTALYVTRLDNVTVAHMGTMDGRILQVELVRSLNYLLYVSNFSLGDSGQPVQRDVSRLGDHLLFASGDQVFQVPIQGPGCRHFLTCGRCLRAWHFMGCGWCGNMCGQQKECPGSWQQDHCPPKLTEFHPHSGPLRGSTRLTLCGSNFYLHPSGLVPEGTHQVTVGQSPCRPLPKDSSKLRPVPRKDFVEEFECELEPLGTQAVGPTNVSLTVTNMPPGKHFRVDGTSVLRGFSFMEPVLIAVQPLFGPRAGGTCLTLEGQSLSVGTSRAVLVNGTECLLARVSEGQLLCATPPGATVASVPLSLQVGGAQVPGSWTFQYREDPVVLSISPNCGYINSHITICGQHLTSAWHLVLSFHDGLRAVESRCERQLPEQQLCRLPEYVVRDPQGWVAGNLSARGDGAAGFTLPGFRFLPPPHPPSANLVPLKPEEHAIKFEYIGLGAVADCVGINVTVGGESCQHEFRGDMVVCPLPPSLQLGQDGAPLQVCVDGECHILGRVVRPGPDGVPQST
Procedure: (§1) Wells of 96-well EIA/RIA high binding plates (Costar, #2592) are coated with 100 μL of 1 μg/mL human c-Met extracellular domain (ECD)-Fc-Flis fusion (SEQ ID NO:72), RON-ECD-Fc (R&D Systems, #1947-MS), or PlexinA2-ECD-Fc (Abnova, Taipei, Taiwan #H00005362-P01) in coating buffer (BioFX Labs, # COAT-1000-01) overnight at 4° C. […] After the plates are washed, 100 μL/well of substrate solution (BioFx, #TMBW-1000-01) are added and the plates are incubated for 10 min. at room temperature. 100 μL/well of stop solution (BioFx, # LSTP-1000-01) are added to stop the reaction. The colorimetric signals are developed and read at 450 nm using a SpectraMax 190 plate reader (Molecular Devices, Sunnyvale, Calif.). c-Met antibody binding to c-Met, RON and PlexinA2 ECDs is proportional to color signal production.

[2] = molecular target: T2, Human c-Met-Flis-Fc ECD (human); assay: ELISA, coated ECD-Fc, antibody 0.357 ng/mL
T2 construct: also called human c-Met extracellular domain (ECD)-Fc-Flis fusion; Human cMet-ECD-Fc-Flis
Procedure: as §1

[3] = molecular target: T3, PlexinA2-ECD-Fc (human, UniProt O75051 35-1237); assay: ELISA, coated ECD-Fc, antibody 0.357 ng/mL
T3 construct: extracellular domain; Bought reagent
T3 sequence (looked up): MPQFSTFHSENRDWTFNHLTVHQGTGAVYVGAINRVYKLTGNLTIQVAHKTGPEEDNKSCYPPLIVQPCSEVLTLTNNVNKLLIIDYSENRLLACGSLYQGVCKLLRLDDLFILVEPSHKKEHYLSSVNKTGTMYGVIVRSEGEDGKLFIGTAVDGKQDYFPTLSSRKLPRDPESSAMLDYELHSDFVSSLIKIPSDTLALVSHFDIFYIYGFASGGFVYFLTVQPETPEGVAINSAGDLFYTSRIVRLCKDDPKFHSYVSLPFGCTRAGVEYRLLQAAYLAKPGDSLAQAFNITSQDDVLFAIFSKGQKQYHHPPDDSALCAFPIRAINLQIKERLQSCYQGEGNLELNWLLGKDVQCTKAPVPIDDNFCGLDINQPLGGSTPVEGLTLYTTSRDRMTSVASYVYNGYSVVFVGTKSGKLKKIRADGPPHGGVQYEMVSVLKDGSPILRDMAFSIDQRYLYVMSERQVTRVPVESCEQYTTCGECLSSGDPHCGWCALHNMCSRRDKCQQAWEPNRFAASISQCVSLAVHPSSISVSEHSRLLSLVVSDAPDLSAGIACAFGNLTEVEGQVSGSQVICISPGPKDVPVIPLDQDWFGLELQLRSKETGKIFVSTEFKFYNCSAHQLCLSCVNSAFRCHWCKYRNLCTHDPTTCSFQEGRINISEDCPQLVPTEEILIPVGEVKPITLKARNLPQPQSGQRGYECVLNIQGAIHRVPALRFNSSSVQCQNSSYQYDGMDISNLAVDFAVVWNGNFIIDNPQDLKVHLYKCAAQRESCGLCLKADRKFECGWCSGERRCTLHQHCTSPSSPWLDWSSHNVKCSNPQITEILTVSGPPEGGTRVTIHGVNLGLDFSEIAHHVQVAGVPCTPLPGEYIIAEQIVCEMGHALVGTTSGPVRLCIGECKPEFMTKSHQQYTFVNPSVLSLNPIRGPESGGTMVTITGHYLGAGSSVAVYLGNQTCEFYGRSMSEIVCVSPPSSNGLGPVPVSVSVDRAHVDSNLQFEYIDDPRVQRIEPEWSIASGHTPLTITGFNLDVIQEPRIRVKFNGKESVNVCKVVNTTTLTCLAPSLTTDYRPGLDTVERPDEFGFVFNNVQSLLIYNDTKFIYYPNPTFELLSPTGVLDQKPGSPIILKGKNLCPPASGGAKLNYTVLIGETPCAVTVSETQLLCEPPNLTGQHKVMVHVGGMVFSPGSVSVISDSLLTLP
Procedure: as §1

[4] = molecular target: T1, RON-ECD-Fc; assay: ELISA, coated ECD-Fc, antibody 16666.667 ng/mL
Procedure: as §1

[5] = molecular target: T2, Human c-Met-Flis-Fc ECD; assay: ELISA, coated ECD-Fc, antibody 16666.667 ng/mL
Procedure: as §1

[6] = molecular target: T3, PlexinA2-ECD-Fc; assay: ELISA, coated ECD-Fc, antibody 16666.667 ng/mL
Procedure: as §1

[7] = molecular target: T2, Human c-Met-Flis-Fc ECD; assay: ELISA, coated ECD-Fc, antibody 100000.000 ng/mL

T2 sequence (chain, as listed by the source limits assumed): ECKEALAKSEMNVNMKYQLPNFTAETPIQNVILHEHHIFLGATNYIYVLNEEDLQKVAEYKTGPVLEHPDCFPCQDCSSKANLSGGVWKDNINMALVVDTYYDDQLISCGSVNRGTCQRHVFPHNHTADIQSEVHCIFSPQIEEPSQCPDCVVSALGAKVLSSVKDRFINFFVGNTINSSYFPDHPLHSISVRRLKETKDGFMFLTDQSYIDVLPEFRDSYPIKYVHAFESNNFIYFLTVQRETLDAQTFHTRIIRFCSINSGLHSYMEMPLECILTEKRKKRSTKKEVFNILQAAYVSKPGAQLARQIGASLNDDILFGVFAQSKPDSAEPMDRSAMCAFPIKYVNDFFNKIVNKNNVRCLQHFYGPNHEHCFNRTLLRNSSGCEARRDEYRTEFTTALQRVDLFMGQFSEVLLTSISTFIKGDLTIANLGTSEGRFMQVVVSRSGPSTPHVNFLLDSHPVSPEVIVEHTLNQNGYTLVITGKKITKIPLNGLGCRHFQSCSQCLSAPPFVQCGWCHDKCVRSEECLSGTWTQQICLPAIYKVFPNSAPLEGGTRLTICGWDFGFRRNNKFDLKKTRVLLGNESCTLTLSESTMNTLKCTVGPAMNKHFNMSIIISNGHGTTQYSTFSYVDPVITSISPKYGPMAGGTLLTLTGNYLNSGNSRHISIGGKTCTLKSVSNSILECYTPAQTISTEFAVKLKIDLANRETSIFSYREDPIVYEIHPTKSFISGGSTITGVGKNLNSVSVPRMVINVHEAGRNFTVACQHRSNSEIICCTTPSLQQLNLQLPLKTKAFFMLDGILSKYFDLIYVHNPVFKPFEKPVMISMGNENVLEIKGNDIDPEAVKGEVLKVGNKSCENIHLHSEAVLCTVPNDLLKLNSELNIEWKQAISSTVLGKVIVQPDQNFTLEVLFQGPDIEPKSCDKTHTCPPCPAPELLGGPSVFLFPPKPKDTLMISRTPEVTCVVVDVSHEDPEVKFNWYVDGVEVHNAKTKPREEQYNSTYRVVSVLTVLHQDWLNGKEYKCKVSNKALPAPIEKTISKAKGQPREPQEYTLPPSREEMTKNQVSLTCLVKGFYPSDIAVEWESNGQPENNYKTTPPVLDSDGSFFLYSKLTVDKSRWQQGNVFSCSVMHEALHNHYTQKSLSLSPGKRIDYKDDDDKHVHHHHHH

Average A450 nm [1]: 0.08 A450 nm | Average A450 nm [2]: 0.813 A450 nm | Average A450 nm [3]: 0.107 A450 nm | Average A450 nm [4]: 0.124 A450 nm | Average A450 nm [5]: 4 A450 nm | Average A450 nm [6]: 0.118 A450 nm | Average A450 nm [7]: 4 A450 nm
B1: C8-6 (antibody, human IgG2, kappa, V domains shown)
VH: QVQLVQSGAEVKKPGASVKVSCKASGYTFTDYYMHWVRQAPGQGLEWMGRVNPNRGGTTYNQKFEGRVTMTTDTSTSTAYMELRSLRSDDTAVYYCARTNWLDYWGQGTTVTVSS
VL: DIQMTQSPSSLSASVGDRVTITCSVSSSVSSIYLHWYQQKPGKAPKLLIYSTSNLASGVPSRFSGSGSGTDFTLTISSLQPEDFATYYCIQYSGYPLTFGGGTKVEIKR
notes: Called IgG4, kappa; also called Mab C8-6
